Molecular target: T1, Tim13p (recombinant, co-expressed with Tim8p in E. coli) (S. cerevisiae, UniProt P53299 1-105)
T1 sequence (looked up): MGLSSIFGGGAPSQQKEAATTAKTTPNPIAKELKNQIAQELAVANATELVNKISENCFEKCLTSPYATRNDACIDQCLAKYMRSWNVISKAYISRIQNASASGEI
Test: quantitative amino acid analysis

B1: Tim8p (recombinant, co-expressed with Tim13p in E. coli) (natural protein, S. cerevisiae, UniProt P57744 1-87, looked up)
chain: MSSLSTSDLASLDDTSKKEIATFLEGENSKQKVQMSIHQFTNICFKKCVESVNDSNLSSQEEQCLSNCVNRFLDTNIRIVNGLQNTR
stoichiometry N: 1 molar ratio
